Test results reported in patent US20090117124A1 (Pfizer, published 2009).

Key:
[1] = molecular target: T1, cynomolgus monkey IgE (in cynomolgus serum, Harlan Sera-Lab Ltd) (cynomolgus monkey); test: capture ELISA, Test 1, Cyno 1
T1 construct: Serum was the source of IgE; eight serum samples; also called cynomolgus IgE; Cyno 1 to Cyno 8 serum samples
Protocol: (§1) Wells were washed once with 150 μL/well wash buffer (0.05% Tween-20, Sigma, Cat. No. P7949/TBS) then blocked with 150 μL/well 1% BSA (Sigma, Cat. No. A7030) in TBS for 2 hours at room temperature. Wells were washed twice with 150 μL wash buffer. 50 μL human (in-house donors) or cynomolgus serum (Harlan Sera-Lab Ltd, Loughborough) was added from neat to at least 1:16 dilution in 1% BSA/0.05% Tween-20/TBS diluent buffer. […] Wells were incubated for 2 hours at 25° C. before washing (3×150 μL wash buffer). […] Wells were incubated for 1 hour at 25° C. then washed (3×150 μL wash buffer). Streptavidin-HRP (Amersham Bioscience, Cat. No. RPN 1231) diluted 1:1000 in diluent buffer was added to all wells and incubated for 45 minutes at room temperature. Wells were washed (3×150 […] wash buffer). 50 μL OPD (Dako, Cat. No. S2045) was added to all wells and the color allowed to develop for 10 minutes before stopping the reaction with 50 μl 0.6M H₂SO₄ and the absorbance measured at 490 nm.

[2] = molecular target: T1, cynomolgus monkey IgE (in cynomolgus …); test: capture ELISA, Test 1, Cyno 2
Protocol: as §1

[3] = molecular target: T1, cynomolgus monkey IgE (in cynomolgus …); test: capture ELISA, Test 1, Cyno 3
Protocol: as §1

[4] = molecular target: T1, cynomolgus monkey IgE (in cynomolgus …); test: capture ELISA, Test 1, Cyno 4
Protocol: as §1

[5] = molecular target: T1, cynomolgus monkey IgE (in cynomolgus …); test: capture ELISA, Test 1, Cyno 5
Protocol: as §1

[6] = molecular target: T1, cynomolgus monkey IgE (in cynomolgus …); test: capture ELISA, Test 1, Cyno 6
Protocol: as §1

[7] = molecular target: T1, cynomolgus monkey IgE (in cynomolgus …); test: capture ELISA, Test 1, Cyno 7
Protocol: as §1

[8] = molecular target: T2, free IgE in human serum (healthy volunteers, in-house donors) (human, UniProt P01854-1 1-428); test: capture ELISA, Test 1, human serum
T2 construct: Kept apart from the bought myeloma IgE because it is native serum IgE of single donors; also called serum IgE
T2 sequence (P01854 other isoform, or with tags, fused parts or gaps): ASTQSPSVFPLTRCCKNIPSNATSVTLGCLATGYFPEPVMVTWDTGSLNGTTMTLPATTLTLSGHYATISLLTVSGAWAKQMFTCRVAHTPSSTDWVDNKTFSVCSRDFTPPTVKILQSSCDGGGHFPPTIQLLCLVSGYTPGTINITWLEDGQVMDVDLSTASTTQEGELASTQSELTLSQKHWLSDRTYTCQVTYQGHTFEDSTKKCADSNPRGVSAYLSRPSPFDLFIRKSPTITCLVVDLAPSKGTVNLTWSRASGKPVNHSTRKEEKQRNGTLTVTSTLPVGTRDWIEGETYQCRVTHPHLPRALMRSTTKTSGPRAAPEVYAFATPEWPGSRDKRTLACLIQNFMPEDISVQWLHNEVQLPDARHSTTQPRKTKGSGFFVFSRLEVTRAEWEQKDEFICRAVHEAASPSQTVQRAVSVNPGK
Protocol: as §1

[9] = molecular target: T2, free IgE in human serum (healthy …); test: serum free IgE depletion ELISA; DIN 0284
Protocol: (§2) The next day ELISA plates were washed 1× with 300 μL/well wash buffer (0.05% Tween-20, Sigma, Cat. No. P7949/TBS) then blocked with 150 μL/well 1% BSA (Sigma, Cat. No. A7030) in TBS for 1 hour at room temperature.

[10] = molecular target: T2, free IgE in human serum (healthy …); test: serum free IgE depletion ELISA; DIN 0382
Protocol: as §2

[11] = molecular target: T2, free IgE in human serum (healthy …); test: serum free IgE depletion ELISA; DIN 0748
Protocol: as §2

[12] = molecular target: T2, free IgE in human serum (healthy …); test: serum free IgE depletion ELISA; DIN 0011 experiment 1
Protocol: as §2

[13] = molecular target: T2, free IgE in human serum (healthy …); test: serum free IgE depletion ELISA; DIN 0451 experiment 1
Protocol: as §2

[14] = molecular target: T2, free IgE in human serum (healthy …); test: serum free IgE depletion ELISA; DIN 0623 experiment 1
Protocol: as §2

[15] = molecular target: T2, free IgE in human serum (healthy …); test: serum free IgE depletion ELISA; DIN 0632 experiment 1
Protocol: as §2

B1: 5.948.1 (recombinant) (antibody, human IgG2, kappa, V domains shown)
VH: QVQLVQSGAEVKKPGASVKVSCKASGYTFTSYDINWVRQATGQGLEWMGWMDPNSGNTGYAQKFQGRVTMTRNTSISTAYMELSSLRSEDTAVYYCARGHYDSDGYYSFSGMDVWGQGTTVTVSS
VL: not shown
notes: Human IgG2 kappa; leader omitted; Two batches were tested in some assays; also called recombinant 5.948.1; 5.948.1 - Batch 1 (762.8 µg/mL)
Which results are given for B1?
IgE concentration detected [1]: 481 ng/mL; IgE concentration detected [2]: 464 ng/mL; IgE concentration detected [3]: 457 ng/mL; IgE concentration detected [4]: 39 ng/mL; IgE concentration detected [5]: 837 ng/mL; IgE concentration detected [6]: 53 ng/mL; IgE concentration detected [7]: 8 ng/mL; IgE concentration detected [8]: 468 ng/mL; IC25 ng/mL [9]: 2.45 µg/mL; IC25 ng/mL [10]: 25 µg/mL; IC25 ng/mL [11]: 25.1 µg/mL; IC25 ng/mL [12]: 3.3 µg/mL; IC25 ng/mL [13]: 11.6 µg/mL; IC25 ng/mL [14]: 0.5 µg/mL; IC25 ng/mL [15]: 8.91 µg/mL
